# Tests used:
# [1] = target: Human casein kinase II (CK), cell-free expressed with C-terminal HSV epitope tag and polyhistidine tag
# [2] = target: human MDM2 (ubiquitin-protein ligase E3 MDM2), cell-free expressed with C-terminal HSV epitope tag and polyhistidine tag, Q00987
# [3] = target: human p53 oncoprotein (cellular tumor antigen p53), cell-free expressed from pETBlue-2 with C-terminal HSV epitope tag and polyhistidine tag, P04637
# [4] = target: human protein kinase A catalytic subunit alpha, cell-free expressed with C-terminal HSV epitope tag and polyhistidine tag, P17612
protein,measurement,setting,value
human recombinant ZAP-70 tyrosine kinase (Invitrogen Corporation) (protein) MPDPAAHLPFFYGSISRAEAEEHLKLAGMADGLFLLRQCLRSLGGYVLSLVHDVRFHHFPIERQLNGTYAIAGGKAHCGPAELCEFYSRDPDGLPCNLRKPCNRPSGLEPQPGVFDCLRDAMVRDYVRQTWKLEGEALEQAIISQAPQVEKLIATTAHERMPWYHSSLTREEAERKLYSGAQTDGKFLLRPRKEQGTYALSLIYGKTVYHYLISQDKAGKYCIPEGTKFDTLWQLVEYLKLKADGLIYCLKEACPNSSASNASGAAAPTLPAHPSTLTHPQRRIDTLNSDGYTPEPARITSPDKPRPMPMDTSVYESPYSDPEELKDKKLFLKRDNLLIADIELGCGNFGSVRQGVYRMRKKQIDVAIKVLKQGTEKADTEEMMREAQIMHQLDNPYIVRLIGVCQAEALMLVMEMAGGGPLHKFLVGKREEIPVSNVAELLHQVSMGMKYLEEKNFVHRDLAARNVLLVNRHYAKISDFGLSKALGADDSYYTARSAGKWPLKWYAPECINFRKFSSRSDVWSYGVTMWEALSYGQKPYKKMKGPEVMAFIEQGKRMECPPECPPELYALMSDCWIYKWEDRPDFLTVEQRMRACYYSLASKVEGPPGSTQKAEAACA,"phosphorylation of photo-transferred protein on microarray, anti-phosphotyrosine (RC20) detection",[1],ZAP-70 does not phosphorylate CK
same,"phosphorylation of photo-transferred protein on microarray, anti-phosphotyrosine (RC20) detection",[2],Both kinases heavily phosphorylate the MDM protein
same,"phosphorylation of photo-transferred protein on microarray, anti-phosphotyrosine (RC20) detection",[3],p53 is not phosphorylated by either kinase
same,"phosphorylation of photo-transferred protein on microarray, anti-phosphotyrosine (RC20) detection",[4],"phosphorylates PKA to a very slight, nearly undetectable degree"
